We go through three molecules from patent publication US20110263026, “Construction of Protein-Responsive shRNA/RNAi Control System Using RNP Motif” (JAPAN SCIENCE AND TECHNOLOGY AGENCY, published 2011).

Data set [1] addresses T1, L7Ae (UniProt O29494 SEQ:21-139). Description: EMSA; 40 nM RNA, 80-640 nM L7Ae, Opti-MEM, room temperature. The following applies: tags: His6 (pET-28b+, Ni-NTA); hairpin (shRNA) with Box C/D kink-turn loop. On the procedure: (§1) The binding between each shRNA and the protein was confirmed as follows: after dilution with a dialysis buffer to bring the protein concentration to concentrations 25 times the final concentrations of 80 to 640 nM, 2 μL of the protein solution with each concentration, 2 μL of 1 μM shRNA-Box C/D-GFP, 6 μL of ultrapure water, and 40 μL of Opti-MEM I (trademark, Invitrogen Corp.) were mixed and left standing at room temperature for 30 minutes to bind shRNA (40 nM) to L7Ae (80 nM, 160 nM, 320 nM, or 640 nM). shRNA-GFP and shRNA-Box C/D mut-GFP were bound to L7Ae in the same way. To each solution, 13 μL of 5× dye solution (0.25% BPB, 30% glycerol) was added and mixed, and 15 μL of this mixed solution was layered on a nondenaturing 15% polyacrylamide (1/30 bisacrylamide) gel and electrophoresed at 250 V at 4° C. for 50 minutes. After the electrophoresis, the gel was stained with SYBR Green for 15 minutes, and bands were confirmed using FLA-7000 (FUJI FILM).
A general note: A gel shift assay detects complexes by their altered migration in electrophoresis.

Data set [2] deals with T1, L7Ae. Description: EMSA; 40 nM RNA, 80-640 nM L7Ae; sequence-specific binding stated for Box C/D only. The following applies: tags: His6 (pET-28b+, Ni-NTA); hairpin (shRNA). On the procedure: as §1

T1 sequence (O29494 whole entry): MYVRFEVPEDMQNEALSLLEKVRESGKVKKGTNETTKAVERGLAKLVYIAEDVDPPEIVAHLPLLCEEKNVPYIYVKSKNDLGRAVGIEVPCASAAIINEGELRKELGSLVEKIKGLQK

B1: shRNA-Box C/D-GFP (ssRNA)
RNA: GGCAUCAAGGUGAACUUCAGCUGACCCGAAAGGGCGUGAUGCUGAAGUUCACCUUGAUGCCAG
For the molecule B1, in the data set with L7Ae [1], the binding result is recorded as “binds”.

B2: shRNA-Box C/D-mut-GFP (ssRNA)
RNA: GGCAUCAAGGUGAACUUCAGCUGCCCGAAAGGGCGUCAUGCUGAAGUUCACCUUGAUGCCAG
For the molecule B2, in the data set with L7Ae [2], the binding result is reported as “no binding”.

B3: shRNA-GFP (ssRNA)
RNA: GGCAUCAAGGUGAACUUCAAGAUCCAGCAUAGGGAUCUUGAAGUUCACCUUGAUGCCAG
For the molecule B3, the binding result with L7Ae [2] is given as “no binding”.
